Reference: patent US20240076389A1 (NATIONAL RESEARCH COUNCIL OF CANADA, published 2024)
Each block holds one binder with its values, some of them ahead of it.

Columns and labels:
[1] = target: T1, recombinant human AXL extracellular domain, C-terminally His8-tagged (rhAXL-ECD) (human, UniProt P30530 26-451); assay: SPR, AXL ECD immobilized, VHH monomer flowed, multi-cycle kinetics
T1 construct: Made in CHO cells; also called (rh)AXL-ECD His8; human AXL ECD
T1 sequence: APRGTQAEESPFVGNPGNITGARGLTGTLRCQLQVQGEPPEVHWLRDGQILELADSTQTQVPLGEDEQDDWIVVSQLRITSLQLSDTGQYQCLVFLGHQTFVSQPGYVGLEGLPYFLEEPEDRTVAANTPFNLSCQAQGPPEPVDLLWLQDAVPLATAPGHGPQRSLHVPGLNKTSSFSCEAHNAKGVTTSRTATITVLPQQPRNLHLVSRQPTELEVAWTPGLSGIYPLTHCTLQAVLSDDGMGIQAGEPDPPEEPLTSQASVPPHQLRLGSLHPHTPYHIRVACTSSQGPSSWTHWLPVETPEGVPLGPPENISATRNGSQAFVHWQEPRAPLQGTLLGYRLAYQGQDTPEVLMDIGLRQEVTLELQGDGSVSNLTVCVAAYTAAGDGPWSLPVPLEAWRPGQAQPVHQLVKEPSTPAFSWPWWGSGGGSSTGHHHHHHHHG
Description: (§1) For VH Hs and VHH-Fcs, binding to human and cynomolgus AXL ECD was assessed using either a Biacore T200 instrument or a Biacore 3000 instrument. Either human AXL ECD or anti-human Fc antibody was immobilized on a research-grade CM5 series S sensor chip (T200, rhAXL ECD) or a C1 sensor chip (3000, anti-human Fc) using amine coupling in acetate buffer. VHH-Fcs were captured on anti-human Fc surfaces. Either monomeric VHHs (for rhAXL ECD surfaces) or human and cyno AXL ECD (for VHH-Fc surfaces) were flowed over the surfaces at different concentration ranges. Running buffers were HBS-EP (3000) and HBS-EP+(T200). Flow rates were 10-40 ul/min. All binding studies were performed at 25° C. Surfaces were regenerated using 10 mM glycine, pH 1.5.

[2] = target: T1, recombinant human AXL extracellular …; assay: SPR, AXL ECD immobilized, VHH monomer flowed, single-cycle kinetics
Description: as §1

[3] = target: T2, human AXL expressed on the cell surface of tumor cell lines (human, UniProt P30530 26-894); assay: cell-based or functional assay
T2 sequence (looked up): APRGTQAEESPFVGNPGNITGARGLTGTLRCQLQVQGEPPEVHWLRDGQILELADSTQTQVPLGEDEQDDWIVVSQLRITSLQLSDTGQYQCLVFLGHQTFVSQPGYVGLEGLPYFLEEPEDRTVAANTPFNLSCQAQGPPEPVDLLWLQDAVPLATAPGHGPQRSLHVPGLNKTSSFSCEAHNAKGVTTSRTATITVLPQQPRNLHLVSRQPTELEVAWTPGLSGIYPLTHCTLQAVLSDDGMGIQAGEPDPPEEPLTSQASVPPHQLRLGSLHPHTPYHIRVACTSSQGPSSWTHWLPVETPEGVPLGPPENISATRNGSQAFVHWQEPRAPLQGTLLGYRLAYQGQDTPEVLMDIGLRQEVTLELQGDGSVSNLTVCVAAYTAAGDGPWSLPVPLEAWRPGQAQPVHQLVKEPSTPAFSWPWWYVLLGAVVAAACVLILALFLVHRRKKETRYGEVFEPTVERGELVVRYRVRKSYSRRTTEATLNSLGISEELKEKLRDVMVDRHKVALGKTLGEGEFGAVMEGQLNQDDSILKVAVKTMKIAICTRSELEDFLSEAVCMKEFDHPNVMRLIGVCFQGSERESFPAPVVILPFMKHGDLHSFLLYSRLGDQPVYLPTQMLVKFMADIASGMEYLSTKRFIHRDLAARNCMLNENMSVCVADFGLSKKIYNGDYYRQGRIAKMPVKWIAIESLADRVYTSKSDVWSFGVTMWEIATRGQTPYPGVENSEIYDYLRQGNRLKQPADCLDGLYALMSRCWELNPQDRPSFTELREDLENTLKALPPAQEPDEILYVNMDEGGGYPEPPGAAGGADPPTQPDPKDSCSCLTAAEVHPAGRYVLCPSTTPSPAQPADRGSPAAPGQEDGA

[4] = target: T1, recombinant human AXL extracellular …; assay: SPR Biacore T200, mAb captured on anti-Fc, AXL ECD flowed, single-cycle kinetics
Description: (§2) Surface plasmon resonance. For murine mAbs, binding to human and cynomolgus AXL ECD was assessed using a Biacore T200 instrument. Briefly, either anti-mouse or anti-human Fc antibody was immobilized on a research-grade CM5 series S sensor chip using amine coupling in acetate buffer. Murine or recombinant chimeric murine-human mAbs (mouse VH/VL; human constant regions) were captured, then recombinant human or cyno AXL ECD was flowed over the surface at different concentration ranges (0.1-500 nM) depending on the antibody. The running buffer was PBS/Tween-20 and the flow rate 100 uL/min. All binding studies were performed at 25° C. Surfaces were regenerated using 10 mM glycine, pH 1.5.

[5] = target: T3, recombinant cynomolgus AXL extracellular domain (cynomolgus); assay: as above
T3 construct: range 1-449; also called Cyno AXL; cyno AXL ECD
Description: as §2

B1: NRC-sdAb005 (VHH monomer) (VHH)
VHH: QVKLEESGGGLAQAGGSLRLSCAASGSISSINTIGWFRQAPGKQRELVAASDSGANRNYADSVKGRFTISRDNAKNTVYLQMNNLKPEDTAIYYCRAWGTGTISTMYWGQGTQVTVSS
notes: Llama VHH monomer; not shown: 6xHis and Myc tags
Kd [1]: 58 nM
koff [1]: 0.0097 s⁻¹
kon [1]: 170000 M⁻¹ s⁻¹

B2: NRC-sdAb006 (VHH monomer) (VHH)
VHH: QVKLEESGGGLVQAGASLRLSCVASESIFGFNTMGWYRQAPGNERELVASISNSKRTMYADSVKGRFTISRDNAKNTVNLQMNNLKPEDTAVYYCRAWGIITSATVYWGQGTQVTVSS
notes: as for B1
Kd [1]: 19 nM
koff [1]: 0.0045 s⁻¹
kon [1]: 240000 M⁻¹ s⁻¹

B3: NRC-sdAb003 (VHH monomer) (VHH)
VHH: QVQLVESGGGLVQAGGSLRLSCAASGVTLDYTAIGWFRQAPGKERELVAAITSGGNTDYAESAKGRFRISRDNSKNTIYLQMNSLKPEDTGVYYCAARRGGARGEYDYWDQGTQVTVSS
notes: as for B1
Kd [2]: 955 nM
koff [2]: 0.0054 s⁻¹
kon [2]: 8500 M⁻¹ s⁻¹

B5: hFc-F107-7H5-DM1 (antibody, human IgG1, kappa, V domains shown)
VH: QVQLQQPGAELVKPGASVKLSCKASGYTFTSYWINWVKQRPGQGLEWIGNIYPDSSSTNYNEKFKSKATLTVDKSSTTAYIQFSSLTSEDSAVYYCTRDTYGGSPDYWGQGTTLTVSS
VL: DIVMSQSPSSLAVSAGEKVTMSCKSSQSLLNSRTRKIYLAWYQQKPGQSPKLLIYWASTRQSGVPDRFTGSGSGTDFTLTISSVQAEDLAVYYCKQSYNLWTFGGGTKLEIKR
modifications: DM1 through SMCC linker on lysine residues; sites not given
IC50 of growth inhibition (CellTiterGlo, 5 days) of NCI-H292 cells, -Gas6 [3]: 0.014 nM
IC50 of growth inhibition of NCI-H292 cells, +Gas6 (2 µg/mL) [3]: 0.098 nM

B7: hFC-F111-3C8 (antibody, human IgG1, kappa, V domains shown)
VH: QVQLQQPGAELGKPGTSVKLSCKASGYTFTSYWMHWVKRVPGQGLEWIGNINPNSTSADYNEKFKRKATLTVDKSSSTAYMQLSTLTSEDSAVYYCTRPLMGPYWYFDVWGTGTTVTVSS
VL: QIVLTQSPAIMSASPGEKVTISCSASSSVSYMYWYQQKPGSSPKPWIYRTSNLASGVPARFSGSGSGTSYSLTISSMEAEDAATYYCQQYHNYPPTFGGGTKLEIKR
notes: Chimeric mAb, human IgG1 / human kappa constant regions; also called mAb F111-3C8; chimeric F111-3C8
Kd [4]: 12 nM
koff [4]: 0.001 s⁻¹
kon [4]: 86000 M⁻¹ s⁻¹
Kd [5]: 18 nM
koff [5]: 0.0011 s⁻¹
kon [5]: 60000 M⁻¹ s⁻¹

B10: NRC-sdAb001 (VHH monomer) (VHH)
VHH: QVKLEESGGGLVQAGGSLRLSCTASASISSFDIMGWYRQAPGKQRELVAAITTLDIANYRDSVKGRFTISRDNAKNTVYLQMDSLKPEDTARYHCAAFQSDQNYWGQGTQVTVSS
notes: Llama VHH made as 6xHis- and Myc-tagged monomer in E. coli; not shown: 6xHis and Myc tags
Kd [2]: 4 nM
koff [2]: 0.037 s⁻¹
kon [2]: 8.5e+06 M⁻¹ s⁻¹

Results, then the binder that gave them:

IC50 of growth inhibition (CellTiterGlo, 5 days) of NCI-H292 cells, -Gas6 [3]: 0.015 nM
IC50 of growth inhibition of NCI-H292 cells, +Gas6 (2 µg/mL) [3]: 0.013 nM
B4: mIgG-F149-4G4-DM1 (antibody, V domains shown)
VH: QIQLVQSGPELKKPGETVKISCKTSGYTFTYYGINWVKQAPGKGLEWMGWINTYLGEPTYADDFKGRFAFSLETSASTAYLQINNLRDEDMATYFCTRGTMSYSFDYWGQGTALTVSS
VL: QNVLTQSPAIMSASPGEEVTMTCRASSSVSSSYLHWYQQKSGASPKLWIYSTSKLASGVPARFSGSGSGTSYSLTISSVEAEDAATYYCHQYSGDPLTFGSGTKLEVK
modifications: DM1 through SMCC linker on lysine residues of the antibody; sites not given

IC50 of growth inhibition (CellTiterGlo, 5 days) of NCI-H292 cells, -Gas6 [3]: 0.011 nM
IC50 of growth inhibition of NCI-H292 cells, +Gas6 (2 µg/mL) [3]: 0.296 nM
B6: hFc-F107-8D12-DM1 (antibody, human IgG1, kappa, V domains shown)
VH: QVQLQQPGAELVKPGASVQLSCKASGYTFISFWINWVKQRPGQGLEWMGNIFPGSSSTNYNEKFKSKATLTVDKSSSTAYMQLSSLTSEDSAVYFCARDYYGGSPDYWGQGTTLTVSS
VL: DIVMSQSPSSLAVSAGERVTMSCKSSQSLLNTRTRKNYLAWYQQKPGQSPKLLIYWASTRESGVPDRFTGSGSGTDFTLTISSVQAEDLAVYYCKQSYNLWTFGGGTKLEIKR
modifications: DM1 through SMCC linker on lysine residues; sites not given

IC50 of growth inhibition (CellTiterGlo, 5 days) of NCI-H292 cells, -Gas6 [3]: 0.327 nM
IC50 of growth inhibition of NCI-H292 cells, +Gas6 (2 µg/mL) [3]: 3.9 nM
B8: mIgG-F155-3C7-DM1 (antibody, V domains shown)
VH: QVQLQQPGTELVKPGASVKLSCKASGYIFTNFWINWVKQRPGQGLEWIGNIFPGSNSSNYNEKFKNKATLTVDKSSSTAYMHLSSLTSEDSAVYYCVRDYYGGSPDYWGQGTTLTVSS
VL: DIVMSQSPSSLAVSAGEKVTMSCKSSQSLLNSKTRKNYLAWYQQKPGQSPKLLIYWASTRESGVPARFTGSGSGTDFTLTISSVQAEDLAIYYCKHSYNLWTFGGGTKLEIR
modifications: DM1 through SMCC linker on lysine residues of the antibody; sites not given

IC50 of growth inhibition (CellTiterGlo, 5 days) of NCI-H292 cells, -Gas6 [3]: ~1 nM
B9: hFc-F111-5E9-VC-MMAE (antibody, human IgG1, kappa, V domains shown)
VH: QIQLVQSGPELKKPGETVKISCKASGYTFTKYGMNWVKQAPGKGLKWMGWINTYTGEPTYADDFKGRFAFSLETSASTAYLQINNLTTEDMVTYFCAKGGYYSNPIYPMDYWGQGTSVTVSS
VL: DIQMTQTTSSLSASLGDRVTISCRASQDINNYLNWYQQKPDGTVKLLIYYISRLHSGVPSRFSGSGSGTDYSLTISNLELEDVATYFCQQGNTLPFTFGSGTKLEIKR
modifications: VC-MMAE conjugate; attachment sites not given
